Assay: soluble on expression in E. coli; label from the status in PepcDB or PDB records

Sequence	soluble on expression in E. coli
MAHHHHHHMKIHIFLIATIYVLFSEKLIKWTTASTTQGGDTDTHPGTPPGEGSDVSQGAGQDASQGAGQDANPDPTLPKPPSPPADDTKDTGSQGDADSSSSKIEIPPLVKPENHKTIVSAMLKNYKGVKVTGTCGADFGLFLVPHIYVHVKSEDTEIELSSELAPPEMQTKFDKTQLKKFCVKDDTKKFDFIAYIYKDILVFKWKVYEEGLSKEQDVDEMKYLLPNLKQPITSIQVHSWTGTKESYILESKDYVLGEGMPEKCDAIATDCFLSGFTDIGKCFQCKLLMQEKNINDSCFKYVSSNQKELIKKQLKITAQDDEESSEYHLSESIKNLLKNIYKKNNDDNKKKELLHFENVNSALKSELLNYCNLLKEVNMNGVLKDHQLGNVQDVFNNLTKLLEEHKEENDNVLYHKMKNEALCLKNVNDWMKNKTGLLLPQLSYDLTYKNNNFTEFTQNKSYTSQNIVDKLYCNHEYCNRLKDHNNCISKINVEDQKNCALSWAFASKYHLETIKCMKGYEPLNASVLYVTNCLKNKNKDVCTEGSNPLVFLETIEEKGFLPTESNYPYDQSKVGDICPQLQNDWDNVFENTKVLDYNNGPFSVGTKGYIAYESEAFQKDMHSFVKLVKDEIMNKGSVIAYVKAENVLGYELNGKKVQNLCGDKTPDHVVNIVGYGNYINNKGEKKSYWIVRNSWGKYWGDDGYFKVDMYGPSTCEDNFIHTVVVFNVQVPINEKFDKKEHDIYNYYLKTSPEFYHNLYYKTFNS	not soluble
MAHHHHHHMPHHAQDLRHDFTSGILNCHESCAVCLDACLCMYCTASAHHNFLMNDTEGLYLPVCWGLFCVDVGLSAVSSYLPSSLHFHTYFMRSAIRRRYNLHSA	soluble
MKKTKVHLISGFLGTGKTTALKSLMAQKDPNEKWVIIVNEFGEIGIDGAVLSDNGIPVAEIAGGCLCCTAGPQMGVTVQKMLRDAKPDRLMIEASGLAHAASVIDELKTKPLDSLLEIGAVFTVVDPRQFINPDYAQQALYKDQIGICDVLVASKTDLCTPEQLAEFHDKAAKLFPPKAKVVEVQNAQLDIQWLDIPVIEKSRYRLKALPDNTMGFQSQGFTFPAGRDFDGEKLTNFFNDLPNMTEGLVRAKGVFQVLGTWVWLNWVDGQWGANQVSWRRDSRFELIAKSFDADLIEQKLKDALELEHHHHHH	not soluble
MNITVPKKLLSDQLSLLERIVPSRSANPLYTYLGLYAEEGALILFGTNGEVDLEVRLPAEAQSLPRVLVPAQPFFQLVRSLPGDLVALGLASEPGQGGQLELSSGRFRTRLSLAPAEGYPELLVPEGEDKGAFPLRTRMPSGELVKALTHVRYAASNEEYRAIFRGVQLEFSPQGFRAVASDGYRLALYDLPLPQGFQAKAVVPARSVDEMVRVLKGADGAEADLALGEGVLALALEGGSGVRMALRLMEGEFPDYQRVIPQEFALKVQVEGEALREAVRRVSVLSDRQNHRVDLLLEEGRILLSAEGDYGKGQEEVPAQVEGPGMAVAYNARYLLEALAPVGDRAHLGISGPTSPSLIWGDGEGYRAVVVPLRV	soluble
MGSDKIHHHHHHMNRKGNLSMTTQLQHLTLPEDIQQKLLSYKEQPISPEFQSLIGTSGYEAEDEAILFDAIIALAMGKNVLLKGPTGSGKTKLAETLSSYFHKPMHSVNCSVDLDAEALVGYKTIENQSGQATIEFVSGPVTKAMKEGHFLYIDEINMAKPETLPILNGVLDYRKMMTNPFTGEVIRAKSGFGVIAAINEGYVGTVPLNEALKNRFVIIDVPYIKGELLKQVLMSQSALKDEKLIDRFITLSSDLIVQANNGQVSEEAASIRALIDTCDLAAYIPPRRAIERGIVEKLDDDREKAAVRNIAETLFE	not soluble
MTVLIAGAGIAGLSLGLTLHQIGVPFRIYEATAVLRPMGVGINLQPNAVRELLDLGLEAELDRIGVRTRQLGFYSKLGKTIWEEPRGIWAGYAWPQYSVHRGALQMMLYEALIARAGADCVVTGARAAGFETGPESATLILSDGRRVEGRLLIAADGIHSALRAQMYPNEGEPIWNGRVLWRATTRAPAYFGGGAMAMIGHDDLRLVSYPISEPDGDGMVEMNWIAEKRFPLDAAWKKEDWNRAADIGDFLPDFADWRFDWIDVPALIQGAEVVYEYPMVDRDPLPRWTGGSVTLMGDAAHPTYPVGSNGASQAILDARIIGARLLEHGITPRALAAYEAEVRPVTTAVGQANRAGGGPDGVLQRVEDLCGGDFDDIDTVIPHAELAAHAARYKSIAGFSIEELNARPRTIAEGARIPALEHHHHHH	not soluble
MKRWIAIILIALMPAAQAGKAAKVTLVVDDVPVVQVLQTLAEQERQNLVVSPDVSGTLSLHLTDVPWKQALQTVVNSAGLVLRQEGNILHVHSQAWQKEHSARQDAERLRFQANLPLENRSISLQYADAGELAKAGEKLLSAKGTIMVDKRTNRLLLRDNRAALAELEKWVSQMDLPVAQVELAAHIVTINEKSLRELGVKWTLADATQAGSVGDVTTLSSDLSVAAATSRVGFNIGRINGRLLDLELSALEQKQLLDIIASPRLLASHLQPASIKQGSEIPYQVSSGESGATSVEFKEAVLGMEVTPTVLQKGRIRLKLHISQNVPGQVLQQADGEVLAIDKQEIETQVEVKSGETLALGGIFSRKNKSGSDSVPLLGDIPWLGQLFRHDGKEDERRELVVFITPRLVATELEHHHHHH	soluble
GAMGMTTYLEFIQQNEERDGVRFSWNVWPSSRLEATRMVVPVAALFTPLKERPDLPPIQYEPVLCSRTTCRAVLNPLCQVDYRAKLWACNFCYQRNQFPPSYAGISELNQPAELLPQFSSIEYVVLRGPQMPLIFLYVVDTCMEDEDLQALKESMQMSLSLLPPTALVGLITFGRMVQVHELGCEGISKSYVFRGTKDLSAKQLQEMLGLSKVPVTQATRGPQVQQPPPSNRFLQPVQKIDMNLTDLLGELQRDPWPVPQGKRPLRSSGVALSIAVGLLECTFPNTGARIMMFIGGPATQGPGMVVGDELKTPIRSWHDIDKDNAKYVKKGTKHFEALANRAATTGHVIDIYACALDQTGLLEMKCCPNLTGGYMVMGDSFNTSLFKQTFQRVFTKDMHGQFKMGFGGTLEIKTSREIKISGAIGPCVSLNSKGPCVSENEIGTGGTCQWKICGLSPTTTLAIYFEVVNQHNAPIPQGGRGAIQFVTQYQHSSGQRRIRVTTIARNWADAQTQIQNIAASFDQEAAAILMARLAIYRAETEEGPDVLRWLDRQLIRLCQKFGEYHKDDPSSFRFSETFSLYPQFMFHLRRSSFLQVFNNSPDESSYYRHHFMRQDLTQSLIMIQPILYAYSFSGPPEPVLLDSSSILADRILLMDTFFQILIYHGETIAQWRKSGYQDMPEYENFRHLLQAPVDDAQEILHSRFPMPRYIDTEHGGSQARFLLSKVNPSQTHNNMYAWGQESGAPILTDDVSLQVFMDHLKKLAVSSAA	soluble
MNNHSNKHWHLQMYLPEGKKGVQIRSEDMLKEPQPVIGTGEWNNRQCQDFKELHIGTIILVREGKKAIALCEVTSGCYTDKELHEKYRHSNFRNVKVLDFIAEKDQPPPRLFSQGTLKSCGEWTHQWEYIDKLISLMDKNNPIEEYSQLKEYAQLLESKKNIILQGAPGTGKTYTTASIAVHMCNKNFTDYTDHSKVIEEYERLRDTGQIAFCTFHQSMDYEDFVEGLKPEVKSNNVEYNVENGIFKSICEQAKTKEEADIITCIDKYLQSIKGYENKKKIPTISGRSDLWVWWIEGNDTISTRSAISKSEKGEQYSLSPLNIEKVKLQAIGEAIENNWRQYAQAFINAVKKEYQLDKQISDKPYVLIIDEINRGNVSKIFGELITLLEADKRSGAGSDSNHCISLILPYSKENFSVPSNLYIIGTMNTTDRSTGTIDYAVRRRFAFVTLKSSDKVIKEYAEKQSVEDNVRDASLALFTQINGNLKNDKESFIAKHKAADFELEDLKVGHSYFMAKDIDMLKMKMRYEVVPLIKEYIKDGILRGMQGDESYFEKWMNAECFHQSEPTTNDN	not soluble
MVNSTTLAHLNTNIDHLTTVLSSYAGRDKAIRSLAFYLQLKSTTSPDNAKEILGLAKQLSAARLVSRQFNHPGMLKSCRQIMQAFQTGRIGDPLEFLTGAAVTGIYTVYGFVELLAWLSDAKILAFNSARLYKWCLYLWLSELINGIVRQMRVIYRKGIEKSQEDILTLVGLSSDFISGVNSLPHKILWAGKLSMRQSASFSLLASIIGFYKLW	not soluble
MQEVHKWHNDLTGKKLVENLKKNLFDAYYFEDGSEVSKYIMNYVGTGTKIGFGGSVTVQSLNIAEQAMEKGAVILDHNDASLTQEEKMDIMRQQLTSDIFISSTNAITASGELVNIDGVGNRVSAIVFGPKKVIIVVGLNKLCKDVETAFERIKMQAAPKNMKRLGFLNPCIKTGYCVNCDAETRACRIYSVIKRRPMLTDMTVLVVGKSLGFLEHHHHHH	soluble
